Reference: the supplement of paper PMC10126150
± gives the standard deviation of the averaged measurements.

These sequences were tested on ATP (assay: switch fluorescence ratio, 500 uM ATP over buffer (Cy3 cluster intensity, sum of 5 cycles each) (fold (ratio)); higher = stronger signal-on switching upon ATP binding; sequences stand for … in TCGTCGGCAGCGTCAGATGTGTATAAGAGACAGTTTTTTTTTTTTTTTTTTTTTTTTT…TC). Settings: aptamer strand: ATP DNA aptamer (quencher-CACCTGGGGGAGTATTGCGGAGGAAGG + anchor), 100 nM annealed; ATP concentration: 500 uM.
How it was run: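 Exposure to 500 uM ATP lasted 15 min at 22 °C before imaging, and a selection-buffer image was taken beforehand, for Cy3-labelled switching-strand clusters on a modified Illumina MiSeq flow-cell annealed to 100 nM quencher-labelled ATP aptamer. Five buffer/ATP cycles were run with NaOH stripping and re-annealing between them. The fluorescence ratio per cluster is summed target-cycle over summed buffer-cycle Cy3 intensity, averaged per switch-domain sequence. Clusters outside 100-1000 RFU were excluded.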
With GAGGGCTTTG the switch fluorescence ratio was 1 ± 0.031.
With AGGTTGTGTG the switch fluorescence ratio was 0.959 ± 0.044.
With AACTGGGGTA the switch fluorescence ratio was 0.977 ± 0.01.
TATTTAGGGG gave a switch fluorescence ratio of 0.973 ± 0.022.
AGAAAGGGTG gave a switch fluorescence ratio of 1.14 ± 0.074.
TCGGTTAGAT gave a switch fluorescence ratio of 0.981 ± 0.057.
In the case of GCGGGAGATG, the switch fluorescence ratio is reported as 1.04 ± 0.018.
Work on TATACGACAT yielded a switch fluorescence ratio of 1.16 ± 0.2.
AGGGTAAAGG was tested, and the switch fluorescence ratio was 0.989 ± 0.019.
GTGTTAGGGG was tested, and the switch fluorescence ratio was 1.02 ± 0.069.
In the case of GCGGGGTATG, the switch fluorescence ratio is reported as 0.9908 ± 0.008.
In the case of TTGGTGTTCT, the switch fluorescence ratio is reported as 1.08 ± 0.039.
Sequence AAAAGGGGGC has a switch fluorescence ratio of 1.01 ± 0.05.
With CGTCAATTGA the switch fluorescence ratio was 1.01 ± 0.036.
For ATATGAGCAG, the switch fluorescence ratio was 1.02 ± 0.024.
GGGCGCCAAA showed a switch fluorescence ratio of 1.0045 ± 0.00091.
Sequence ATTCGGGGGG has a switch fluorescence ratio of 0.99 ± 0.022.
In the case of CAGTTGGAGC, the switch fluorescence ratio is reported as 0.981 ± 0.06.
CCTGCGTCTG showed a switch fluorescence ratio of 1.9 ± 0.065.
CAGAGTTTCT gave a switch fluorescence ratio of 1.02 ± 0.021.
AGATAAAAGG showed a switch fluorescence ratio of 0.998 ± 0.015.
For GGAGCTCGGG, the switch fluorescence ratio was 0.975 ± 0.038.
Work on GGGGATTGTG yielded a switch fluorescence ratio of 0.991 ± 0.029.
Work on GTTAAAATAC yielded a switch fluorescence ratio of 1.13 ± 0.014.
For AAGGAGTTGG, the switch fluorescence ratio was 0.989 ± 0.025.
Work on TTAGTGACTA yielded a switch fluorescence ratio of 1.01 ± 0.031.
TCATAGTTGG showed a switch fluorescence ratio of 0.979 ± 0.025.
CCGCTGGATA showed a switch fluorescence ratio of 1.51 ± 0.18.
TTGGGATTAA showed a switch fluorescence ratio of 1.05 ± 0.053.
Work on GGTAGGAGAG yielded a switch fluorescence ratio of 0.987 ± 0.0057.
Work on GGAAAGTGAT yielded a switch fluorescence ratio of 1.2 ± 0.26.
Sequence GCGGAGAGGT has a switch fluorescence ratio of 1.03 ± 0.022.
In the case of GTTTGATGTC, the switch fluorescence ratio is reported as 1 ± 0.1.
Sequence TTAGGGGAAA has a switch fluorescence ratio of 1.03 ± 0.066.
With TAGGATTGG the switch fluorescence ratio was 0.971 ± 0.015.
In the case of TTATTGGTTT, the switch fluorescence ratio is reported as 1.048 ± 0.0096.
GGCGTGTCAG gave a switch fluorescence ratio of 0.951 ± 0.039.
TGCAATGGGG gave a switch fluorescence ratio of 1.12 ± 0.07.
Work on ATGAGGGGAG yielded a switch fluorescence ratio of 0.997 ± 0.013.
ACTTGCTATC gave a switch fluorescence ratio of 1.25 ± 0.048.
For TGGGGGCACG, the switch fluorescence ratio was 1 ± 0.026.
Sequence CTGGTGCCGA has a switch fluorescence ratio of 0.985 ± 0.015.
For TTTACATTGG, the switch fluorescence ratio was 1.01 ± 0.044.
ATACAAGTAT was tested, and the switch fluorescence ratio was 0.995 ± 0.025.
Sequence AATTTTTTAT has a switch fluorescence ratio of 0.979 ± 0.036.
AGCTTTGGGG showed a switch fluorescence ratio of 1.02 ± 0.018.
ATTATGGTCG gave a switch fluorescence ratio of 0.999 ± 0.084.
TTGTGGTCGG showed a switch fluorescence ratio of 0.982 ± 0.036.
Sequence ACGGGGGCCG has a switch fluorescence ratio of 0.993 ± 0.041.
Work on ACTAATATCG yielded a switch fluorescence ratio of 1.04 ± 0.036.
For TTTGTGTTCA, the switch fluorescence ratio was 0.98763 ± 0.00075.
Work on GTTGTATAGA yielded a switch fluorescence ratio of 1 ± 0.019.
With GTTTCGTATA the switch fluorescence ratio was 0.997 ± 0.044.
Work on CATATCATAC yielded a switch fluorescence ratio of 1.079 ± 0.0078.
For GACGTGTGTC, the switch fluorescence ratio was 0.983 ± 0.023.
Sequence AGAAGTCGCG has a switch fluorescence ratio of 0.9551 ± 0.0013.
GAGGTGAGG showed a switch fluorescence ratio of 0.989 ± 0.011.
TTGGGTTGGA showed a switch fluorescence ratio of 0.996 ± 0.017.
ATTTTAGAAC gave a switch fluorescence ratio of 1.013 ± 0.0031.
TTATTTGCTG was tested, and the switch fluorescence ratio was 1.02 ± 0.056.
Sequence AGCACGAGGG has a switch fluorescence ratio of 0.9816 ± 0.0093.
With ACGACTTTTG the switch fluorescence ratio was 0.995 ± 0.042.
In the case of AGGCTTATCT, the switch fluorescence ratio is reported as 0.989 ± 0.025.
With GTCAGTATAA the switch fluorescence ratio was 1.03 ± 0.059.
In the case of AGATTCATGC, the switch fluorescence ratio is reported as 1.01 ± 0.019.
ATTTCTTTCA showed a switch fluorescence ratio of 1.02 ± 0.033.
With TACAGTCAAC the switch fluorescence ratio was 1.06 ± 0.041.
Sequence AGAATGGAGG has a switch fluorescence ratio of 0.994 ± 0.025.
Sequence TTTTTTGAGA has a switch fluorescence ratio of 0.975 ± 0.017.
In the case of TAGAGACTGA, the switch fluorescence ratio is reported as 1.023 ± 0.0022.
Work on TCAGTTTGAG yielded a switch fluorescence ratio of 0.97806 ± 0.0007.
Work on TAATCGCTAA yielded a switch fluorescence ratio of 1.13 ± 0.14.
Work on TTCTTTTACT yielded a switch fluorescence ratio of 1.01 ± 0.023.
TTTGCATGCA was tested, and the switch fluorescence ratio was 1.03 ± 0.02.
Sequence TGAAAACACC has a switch fluorescence ratio of 1.13 ± 0.15.
Work on AAGCATAGGT yielded a switch fluorescence ratio of 0.995 ± 0.018.
With ACGACTGTAG the switch fluorescence ratio was 1.02 ± 0.029.
In the case of TTATAAGGAA, the switch fluorescence ratio is reported as 0.981 ± 0.015.
TTAAAAGAGC showed a switch fluorescence ratio of 1.02 ± 0.035.
In the case of TTTCGTGTTG, the switch fluorescence ratio is reported as 1.01 ± 0.017.
For CTAATCAAAT, the switch fluorescence ratio was 0.973 ± 0.019.
For ATTAGTTTTG, the switch fluorescence ratio was 0.99 ± 0.029.
Work on GGAGGGCACG yielded a switch fluorescence ratio of 0.967 ± 0.053.
CTAAGCCGTT gave a switch fluorescence ratio of 0.971 ± 0.011.
Sequence CATGGGGCGC has a switch fluorescence ratio of 1.012 ± 0.0071.
CTGTATTATA showed a switch fluorescence ratio of 0.996 ± 0.031.
CCAGGGGGTG gave a switch fluorescence ratio of 1.53 ± 0.32.
In the case of AAATTAATCA, the switch fluorescence ratio is reported as 1.04 ± 0.094.
With AGATTTTGCA the switch fluorescence ratio was 0.989 ± 0.027.
Sequence TAGATTCGTT has a switch fluorescence ratio of 0.9907 ± 0.0071.
With GATGGGTTGG the switch fluorescence ratio was 0.9899 ± 0.008.
TGTCACAAGC showed a switch fluorescence ratio of 1.02 ± 0.013.
Work on AGTGCGAGAG yielded a switch fluorescence ratio of 1.01 ± 0.029.
CCGTGGTATA showed a switch fluorescence ratio of 1.151 ± 0.0068.
For GAGGGATTTT, the switch fluorescence ratio was 1.02 ± 0.017.
Work on TTTTACGGGT yielded a switch fluorescence ratio of 1.02 ± 0.087.
TTTTGGATCG was tested, and the switch fluorescence ratio was 1 ± 0.012.
ATGTGATGAA was tested, and the switch fluorescence ratio was 0.973 ± 0.019.
Work on TTACTGATGG yielded a switch fluorescence ratio of 0.99 ± 0.033.
In the case of CTGTCATTTG, the switch fluorescence ratio is reported as 0.985 ± 0.03.
